Laboratory results published in publication PMC7589674.

Target: The-05 (variant of the HFt-MP-PASE construct bearing the Lys53Glu, Lys71Glu, Thr135Glu and Lys143Glu mutations) (human)
Test: SEC + other: dynamic light scattering + other: negative-stain TEM; empty The-05; Superose 6 in PBS pH 7.4; DLS at 25 °C, 1 mg/mL in diluted PBS (1:2); TEM 0.1 mg/mL, 2% uranyl acetate; assembly of the subunits into the cage

Work on “The-05 (variant of the HFt-MP-PASE construct bearing the Lys53Glu, Lys71Glu, Thr135Glu and Lys143Glu mutations) (designed binder)” yielded a stoichiometry N of 24.
